test: soluble on expression in E. coli; label from the status in PepcDB or PDB records

| Sequence | soluble on expression in E. coli |
| --- | --- |
| MALDITDESEIYNLDSLVSYSQGGCKAEHDWRIGTEHEKFPFYRGDFRPVPYEGSRGIRALLEGMQKALGWEPILDEGNIIGLVGSVGQGAISLEPGGQFELSGALLKTIGDTYCEVIEHLALLKKISEPLGIGFLGIGASPKWTLTETPRMPKSRYRIMANYMPKVGHSGLDMMYRTSTVQVNLDFSSETDMRRKMQVSMKLQSIATALFASSPFTEGRPNGFLSWRSEIWCDTDNQRTGVLPFIFSERFGFADYVEWALDVPMYFVVRDGRYYDCTHITFRQFMNGALRGQVANATPNMGDWINHLSTLFPEVRLKRFLEMRGADCGSLKRICALSAFWVGILYDSEALNEAEALTKDWCFEEVLDMRKRVPKEGLKTPFRQTIILEIARQAVAISHKGLKNRRQYASNGLDETSFLAPLEEVIAMGQTDADKFLSLYHSIWDKSVEPVFLECVY | not soluble |
| MVKESGMASLLLENPYYGYRKPKDQLRSSLKNVSDLFVMGGALILESAALLHWLERDGFWPLGMTGISMGGHMASLAVTNWPKPIPLIPCLSWTTASSVFTTGVLSRAVNWRELEKQYATHTVYEEEIISMLEYCGTDSFRMGQEFVKNAPGSFDGLDLTQELLQSGQQVALRSSYSGRPASDQDSSVLMGRRERDGLDQMLSAVSSSAPHLDMLHAKSIACGSGQRQSLQRESLCFMKGVMDECTHIANFSVPVDPSLIIIVQAKEDAYVPRTGVRSLQEIWPGCEVRYLNGGHISAYLFKQGLFRQAIYDAYDRFLHKYSSL | soluble |
| MGSDKIHHHHHHMKLSDFIKTEDFKKEKHVPVIEAPEKVKKDEKVQIVVTVGKEIPHPNTTEHHIRWIKVFFQPDGDPYVYEVGRYEFNAHGESVQGPNIGAVYTEPTVTTVVKLNRSGTIIALSYCNIHGLWESSQKITVEE | soluble |
| MGSDKIHHHHHHMSKTLKEITDQKNELKKFFENFVLNLEKTEIFSEIQKNLTDEVLFVGCGSSYNLALTISYYFERVLKIRTKAIPAGEVAFQKIPDLEERGLAFLFSRTGNTTEVLLANDVLKKRNHRTIGITIEEESRLAKESDLPLVFPVREEAIVMTKSFSMILLSLMFLADKIAGNSTERFSELVGYSPEFFDISWKVIEKIDLKEHDHFVFLGMSEFFGVSLESALKCIEMSLTFSEAYSTLEYRHGPKALVKKGTLVFMQKVSGMDEQEKRLRKELESLGATVLEVGEGGDIPVSNDWKSAFLRTVPAQILGYQKAISRGISPDKPPHLEKTVVL | soluble |
| NVSVLNFGNTPVSFRQDGFLNATAIASHFGKLPKDYLKSEQTQQYISALAENLSVRRKILTEANQIVIVKRGGSEQGTWLHPKLAIHFARWLNPKFAVWCDEQIEILLNGKISDGI | soluble |
| MGSDKIHHHHHHMNHFFVEFGEYEASVCEWGDKSNPQIICFHGLGSTKLSFIEVAELLKDSYHIVSFDLPGHGKTQNFEKDEDYGASHLTNWVVALLEHIGKETFHIVAHSWGASVALHYAAECPEKVNKIVLLDGGYHHGKMNADYFANLYKDAKEGECPPRSLEEEITHYENDFDEYIFDSKETFIQSEKLAYSRWSPLLERAVYDLMREEDSKVKWHATGDTARGVIKFQYTVYKTLKPHKIKSDILLLYCDLPDNYLEIRELQIVEFKKRINITTKLYKDTGHLMHWDRPEEIAEDVLHWFK | not soluble |
| MLSRLTSRNVLLARNVATAATQERQKIKVDNPVVDLDGDEMTRIIWKEIKNKLILPYLDLDIKYYDLGLEYRDETNDQVTIDAAHAILEHSVGIKCATITPDEARIKEFNLKKMWLSPNGTIRNILGGTVFREPILCKNIPRLVPGWTQPITIGRHAFGDQYKCTDLVIPSGSTLQLLVNKPDGSKDVHNVYDFKKSGGVGLAMYNTDESIKGFAHSCFQYALMKQWPLYLSTKNTILKKYDGRFKDIFQDIYEKKYEADFKNNKIWYEHRLIDDQVAQALKSSGGFVWACKNYDGDVQSDIVAQGYGSLGLMSSVLMCPDGKTIEAEAAHGTVTRHYREHQKGNSTSTNPIASIFAWTRGLHHRGVLDNNEALKTFSLTLEKACIDTVEEGKMTKDLSICIHGTKKGTEKGAYLITEDFLSAIDTKMAELMRQD | not soluble |
| NSSKCYIQVTGMTCASCVANIERNLRREEGIYSILVALMAGKAEVRYNPAVIQPPMIAEFIRELGFGATVIENIEGR | soluble |
| SVKVVIEADGGSRGNPGPAGYGAVVWTADHSTVLAESKQAIGRATNNVAEYRGLIAGLDDAVKLGATEAAVLMDSKLVVEQMSGRWKVKHPDLLKLYVQAQALASQFRRINYEWVPRARNTYADRLANDAMDAAAQSAAAD | soluble |
| SNAMKELIKEHQKDINPALQLHDWVEYYRPFAANGQSANYIPALGKVNDSQLGICVLEPDGTMIHAGDWNVSFTMQSISKVISFIAACMSRGIPYVLDRVDVEPTGDAFNSIIRLEINKPGKPFNPMINAGALTIASILPGESAYEKLEFLYSVMETLIGKRPRIHEEVFRSEWETAHRNRALAYYLKETNFLEAEVEETLEVYLKQCAMESTTEDIALIGLILAHDGYHPIRHEQVIPKDVAKLAKALMLTCGMYNASGKYAAFVGVPAKSGVSGGIMALVPPSARREQPFQSGCGIGIYGPAIDEYGNSLTGGMLLKHMAQEWELSIF | soluble |
| MRRVNILCSFALLFASHTSLAVTYPLPPEGSRLVGQSFTVTVPDHNTQPLETFAAQYGQGLSNMLEANPGADVFLPKSGSQLTIPQQLILPDTVRKGIVVNVAEMRLYYYPPDSNTVEVFPIGIGQAGRETPRNWVTTVERKQEAPTWTPTPNTRREYAKRGESLPAFVPAGPDNPMGLYAIYIGRLYAIHGTNANFGIGLRVSQGCIRLRNDDIKYLFDNVPVGTRVQIIDQPVKYTTEPDGSNWLEVHEPLSRNRAEYESDRKVPLPVTPSLRAFINGQEVDVNRANAALQRRSGMPVQISSGSRQMF | not soluble |
| SLSAKDKANVKAIWGKILPKSDEIGEQALSRMLVVYPQTKAYFSHWASVAPGSAPVKKHGITIMNQIDDCVGHMDDLFGFLTKLSELHATKLRVDPTNFKILAHNLIVVIAAYFPAEFTPEIHLSVDKFLQQLALALAEKYR | soluble |
| MYIVVSTGDRAARIASKLPDCIIIDRDPDSAERLKEKGFNVLNGDASNPEILARFDMGEKIILADNDDFNIKVVKTAKLLGLDVYAVAADEDKCWLYEVEGVSKICGSVEALLSTIFRKNRYFEIQVEAEMEGKTL | not soluble |
| MMSDQENENEHAKAFLGLAKCEEEVDAIEREVELYRLNKMKPVYEKRDAYIDEIAEFWKIVLSQHVSFANYIRASDFKYIDTIDKIKVEWLALESEMYDTRDFSITFHFHGIEGDFKEQQVTKVFQIKKGKDDQEDGILTSEPVPIEWPQSYDSINPDLIKDKRSPEGKKKYRQGMKTIFGWFRWTGLKPGKEFPHGDSLASLFSEEIYPFCVKYYAEAQRDLEDEEGESGLSADGDSEDDDGSLGEVDLPLSDEEPSSKKRKV | soluble |
| MVVKFTKSEALHKEALEHIVGGVNSPSRSFKAVGGGAPIAMERGKGAYFWDVDGNKYIDYLAAYGPIITGHAHPHITKAITTAAENGVLYGTPTALEVKFAKMLKEAMPALDKVRFVNSGTEAVMTTIRVARAYTGRTKIMKFAGCYHGHSDLVLVAAGSGPSTLGTPDSAGVPQSIAQEVITVPFNNVETLKEALDKWGHEVAAILVEPIVGNFGIVEPKPGFLEKVNELVHEAGALVIYDEVITAFRFMYGGAQDLLGVTPDLTALGKVIGGGLPIGAYGGKKEIMEQVAPLGPAYQAGTMAGNPASMASGIACLEVLQQEGLYEKLDELGATLEKGILEQAAKHNIDITLNRLKGALTVYFTTNTIEDYDAAQDTDGEMFGKFFKLMLQEGVNLAPSKYEAWFLTTEHTKEDIEYTIEAVGRAFAALADNK | soluble |
| MGSDKIHHHHHHMTKPDMSKLASLSPFELKDELIKLASSDADRLMLNAGRGNPNFLATIPRHGFWQLGLFAMRESERSFSYMPEGVGGFPRREGIEERFDLFAREFAHVPGVSFLAGAVSYVRDQLGLNAGAFLYEMCEGILACNYPVPDRMLKLSEVIVGQYIRKEMIGNHPFIGEFDLFAVEGGTAAMTYLFNSIRENHLLKAGDTIALGMPIFTPYIEIPELNDYKLVELSVEADPGERWQYSNKELDKLRDPKVKAFFLVNPSNPPSVRMSDESLEYLASIIEERPDLIILTDDVYGTFADNFVSLFAMCPKNTILVYSFSKYFGATGWRLGVIATHRDNVFDEKIAALPDAARKELHERYTSITTEPDKLKFIDRLVADSRTVALNHTAGLSTPQQVQMVLFSLFSLMDTPDNYKIAMKRLIRNRKAALYREIGIAPEADDPNAVDYYTLLDIEALGGKALGPDFVKWVLASVEPNELLFRLAEDAGVVLLPGRGFGTRHPSGRVSLANLNESDYAKIGRSIRKLFEEYVEKYNEATGNKANKHVVKK | not soluble |
| GAMSCIKGNVDLVFLFDGSMSLQPDEFQKILDFMKDVMKKLSNTSYQFAAVQFSTSYKTEFDFSDYVKRKDPDALLKHVKHMLLLTNTFGAINYVATEVFREELGARPDATKVLIIITDGEATDSGNIDAAKDIIRYIIGIGKHFQTKESQETLHKFASKPASEFVKILDTFEKLKDLFTELQKKIYVIEG | soluble |
| MGWFGFGGNPTDTPSSSAEVSAAPIDLSAGMNFSVPGFDAPAPEPSVPDHSPFPAAPVLALDQLKSAGVGVSRQMTPYVQMDPSMFASQQPQYIMPEGGVAGKGKFEFALGHIGWAVGGAFGVGCARGALGELMNPETRKMVGKPWMTRMVNATMKHGSGFAQPSGAIVFMYSALEIGLRSVRAEDELNGFGAGALTGAIYRSPHGLKASGVGALVGLGIAAAWTLSSTDSRQRLSEMFSNH | soluble |
| MDYTNNQLHVIYGDASLGLEGPNFHYLFSYERGGLESLVVNQKEWLYRTPTPLFWRATTDNDHGNGFDVKAAQWYAADRFTTCQKIDLTVDGQLVQPLPIAPLNNRYTNHEMANQVALTYHFVTPTVPSTSVSITYTVASDGNIKIMTHFAGREGLPELPAFGLRFIMPTTATGFDYQGLSGETYPDRLAGATQGQFHVDGLPVTPYLVPQECGMHMQTSQLTVTRSTTQNNADQSKQPFSLTFSQADQPFAFSCLPYTAAELEQATHLEELPLPRRTVLSIYGAVRGVGGIDSWGADVEAKYHIPANQDLDFSFNIHFLEHHHHHH | not soluble |
| RIKEKTISHWVAMQGIAMIQLNLLRTSQSQESTQATTMLGQKWYWRAKISPTPIKRMQQITISVSSKQAGPFREELIAFRYLP | not soluble |
| PSGTIVGLYTHTDFAKKLSVDIELNYISMGSLFTMNKDTPEQRDYKVSLGYISLPVNLNYCVYKHIHVQVGIQTLALLTAVTEQKYQNVVTKGKNINDFHAIDAGPTIGCYYQFEKGLQLGVRYYRGIQNVVKENMVLYNTGIQFLLTYQF | not soluble |
| SVREANIKQATAEKQLKEAQGKIDVLQAEVAALKTLVLSSSPTSPTQEPLPGGKTPFKKGHTRNKSTSSAMSGSHQDLSVIQPIVKDCKEADLSLYNEFRLWKDEPTMDRTCPFLDKIYQEDIFPCLTFSKSELASAVLEAVENNTLSIEPVGLQPIRFVKASAVECGGPKKCALTGQSKSCKHRIKLGDSSNYYYISPFCRYRITSVCNFFTYIRYIQQGLVKQQDVDQMFWEVMQLRKEMSLAKLGYFKEEL | soluble |
| KIPEFRDVLISTIGGPHAKLGYEIARALVEDKSGRIKLLYVGSSEKEREKAEKVFEEAMEILNGLNVEREFAISSSPSDVVAREAESFDLVIVGASERTFLKNFLTGLFPEKVVMKTSKTVAMTRKWVGLLNR | not soluble |
